Laboratory results reported in paper PMC6459857 (Nature Communications, 2019).
Numbering of substitutions follows the chain as printed. Names may count otherwise.

B1: p27-C29 (full-length p27-Y89F with the single native Cys 29, labelled with BODIPY-FL) (natural protein)
chain: MSNVRVSNGSPSLERMDARQAEHPKPSACRNLFGPVDHEELTRDLEKHARDMEEASQRKWNFDFQNHKPLEGKYEWQEVEKGSLPEFYFRPPRPPKGASKVPAQESQDVSGSRPAAPLIGAPANSEDTHLVDPKTDPSDSQTGLAEQSAGIRKRPATDDSSTQNKRANRTEENVSDGSPNAGSVEQTPKKPGLRRRQT
modifications: BODIPY-FL on Cys 29
notes: p27Kip1 (p27), human, residues 1-198 (full length), Y89F; Cys 29 kept, the other three native Cys replaced; also called p27-29C; source: E. coli, purified (Ni-NTA, His-tag removed with thrombin, reverse-phase HPLC over C4); labelled with BODIPY-FL
B2: BODIPY-labeled p27-C29 (natural protein)
chain: B1 chain
modifications: BODIPY-FL on the native cysteine at 29
notes: p27Kip1 (p27), human, p27-Y89F background with the single native Cys 29 kept; also called p27–29C; source: E. coli, purified; labelled with BODIPY-FL
B3: BODIPY-labeled p27-C93 (natural protein)
chain: B1 chain with C29A, R93C
modifications: BODIPY-FL on the cysteine at 93
notes: p27Kip1 (p27), human, in the Cys-less p27-Y89F background; source: E. coli, purified; labelled with BODIPY-FL
B4: BODIPY-labeled pY88-p27-C93 (natural protein)
chain: B1 chain with C29A, R93C
modifications: phosphotyrosine at 88; BODIPY-FL on the cysteine at 93
notes: p27Kip1 (p27), human, in the Cys-less p27-Y89F background; source: E. coli, purified; labelled with BODIPY-FL; phosphorylated with ABL-KD
B5: p27-C93 (Cys-less full-length p27-Y89F with R93C, labelled with BODIPY-FL) (natural protein)
chain: B1 chain with C29A, R93C
modifications: BODIPY-FL on Cys 93
notes: p27Kip1 (p27), human, residues 1-198 (full length), Y89F, Cys-less background, Arg 93 to Cys; also called p27-93C; source: E. coli, purified (Ni-NTA, His-tag removed with thrombin, reverse-phase HPLC over C4); labelled with BODIPY-FL
B6: pY88-p27-C54-93 (Alexa Fluor 488 / Alexa Fluor 647 labelled) (natural protein)
chain: B1 chain with C29A, E54C, R93C
modifications: phosphotyrosine at 88; Alexa Fluor 488 maleimide and Alexa Fluor 647 maleimide on the cysteines at 54 and 93
notes: p27Kip1 (p27), human, in the Cys-less p27-Y89F background; source: E. coli, purified; dye-labelled; phosphorylated with ABL-KD
B7: p27-C40 (Cys-less full-length p27-Y89F with E40C, labelled with BODIPY-FL) (natural protein)
chain: B1 chain with C29A, E40C
modifications: BODIPY-FL on Cys 40
notes: p27Kip1 (p27), human, residues 1-198 (full length), Y89F, Cys-less background, Glu 40 to Cys; also called p27-40C; source: E. coli, purified (Ni-NTA, His-tag removed with thrombin, reverse-phase HPLC over C4); labelled with BODIPY-FL
B8: p27-C75 (Cys-less full-length p27-Y89F with E75C, labelled with BODIPY-FL) (natural protein)
chain: B1 chain with C29A, E75C
modifications: BODIPY-FL on Cys 75
notes: p27Kip1 (p27), human, residues 1-198 (full length), Y89F, Cys-less background, Glu 75 to Cys; also called p27-75C; source: E. coli, purified (Ni-NTA, His-tag removed with thrombin, reverse-phase HPLC over C4); labelled with BODIPY-FL
B9: p27-C75-110 (Alexa Fluor 488 / Alexa Fluor 647 labelled) (natural protein)
chain: B1 chain with C29A, E75C, S110C
modifications: Alexa Fluor 488 maleimide and Alexa Fluor 647 maleimide on the cysteines at 75 and 110
notes: p27Kip1 (p27), human, in the Cys-less p27-Y89F background; source: E. coli, purified; dye-labelled, dual-labelled species separated by ion-exchange chromatography
B10: p27-C29-54 (Alexa Fluor 488 / Alexa Fluor 647 labelled) (natural protein)
chain: B1 chain with E54C
modifications: Alexa Fluor 488 maleimide and Alexa Fluor 647 maleimide on the cysteines at 29 and 54
notes: p27Kip1 (p27), human, p27-Y89F background with the native Cys 29 kept; source: E. coli, purified; dye-labelled, dual-labelled species separated by ion-exchange chromatography
B11: p27-C54 (Cys-less full-length p27-Y89F with E54C, labelled with BODIPY-FL) (natural protein)
chain: B1 chain with C29A, E54C
modifications: BODIPY-FL on Cys 54
notes: p27Kip1 (p27), human, residues 1-198 (full length), Y89F, Cys-less background, Glu 54 to Cys; also called p27-54C; source: E. coli, purified (Ni-NTA, His-tag removed with thrombin, reverse-phase HPLC over C4); labelled with BODIPY-FL
B12: p27-C54-93 (Alexa Fluor 488 / Alexa Fluor 647 labelled) (natural protein)
chain: B1 chain with C29A, E54C, R93C
modifications: Alexa Fluor 488 maleimide and Alexa Fluor 647 maleimide on the cysteines at 54 and 93
notes: p27Kip1 (p27), human, in the Cys-less p27-Y89F background; also called p27-C54-C93; source: E. coli, purified; dye-labelled, dual-labelled species separated by ion-exchange chromatography
B13: Y74E/Y88E-p27 (natural protein)
chain: B1 chain with A49C, Y74E, Y88E, S99C, S148C
notes: p27Kip1 (p27), human, residues 1–198 (full length); also called Y88E/Y74E; dual Y phosphomimetic p27; source: E. coli, purified (Ni2+-NTA, His-tag removed with thrombin, reverse-phase HPLC over C4 resin)

Tests used:
Settings in all cases: both partners purified
[1] = target: Cdk2/cyclin A binary complex (human, UniProt P24941 1-298; P20248 173-432); experiment: single-molecule fluorescence anisotropy (smFA); BODIPY-labelled single-Cys p27, not phosphorylated, free or in complex with Cdk2/cyclin A, diluted to pM; 20 mM HEPES pH 7.5, 300 mM NaCl, 40 µM TROLOX; average anisotropy of free and complexed p27 compared
[2] = target: T1, Cdk2/cyclin A binary complex (human, UniProt P24941 1-298; P20248 173-432); experiment: single-molecule fluorescence anisotropy (smFA); BODIPY-labelled single-cysteine p27 in complex with Cdk2/cyclin A, freely diffusing molecules at pM concentration; 20 mM HEPES pH 7.5, 300 mM NaCl, 40 µM TROLOX
[3] = target: T1, Cdk2/cyclin A binary complex; experiment: FRET or BRET; single-molecule FRET (smMFD) within dual-labelled p27 in complex with Cdk2/cyclin A, freely diffusing molecules at pM concentration; 20 mM HEPES pH 7.5, 300 mM NaCl, 40 µM TROLOX
[4] = target: T1, Cdk2/cyclin A binary complex; experiment: ITC; 10 µM p27 or p27 Y to E variants injected into 1 µM Cdk2/cyclin A binary complex; 20 mM HEPES pH 7.5, 300 mM NaCl, 2 mM TCEP; experiments from 5 to 25 °C in intervals of 5 °C (temperature of the tabulated values not stated); single-site binding model

| Binder | binding result [1] | binding result [3] | further results |
| --- | --- | --- | --- |
| B1 | binds | – | – |
| B2 | – | – | binding result [2]: binds |
| B3 | – | – | binding result [2]: binds |
| B4 | – | – | binding result [2]: binds |
| B5 | binds | – | – |
| B6 | – | binds | – |
| B7 | binds | – | – |
| B8 | binds | – | – |
| B9 | – | binds | – |
| B10 | – | binds | – |
| B11 | binds | – | – |
| B12 | – | binds | – |
| B13 | – | – | Kd [4]: 14 nM; dH [4]: -34.4 kcal/mol |
